Assay results taken from patent US20230219996A1.

Key:
[1] = molecular target: SARS-CoV-2 spike (Wuhan, wild-type) (SARS-CoV-2) (UniProt P0DTC2); assay: MSD V-PLEX ACE2 kit, sVNT, positive control; competitor ACE2 (mouse study)
[2] = molecular target: SARS-CoV-2 spike (Wuhan, wild-type) (SARS-CoV-2) (UniProt P0DTC2); assay: MSD V-PLEX ACE2 kit, sVNT, positive control; competitor ACE2 (NHP study)

## ACE2 Calibration Reagent (included in the MSD kit)
[1]
  ACE2-binding percent inhibition: 100%
[2]
  ACE2-binding percent inhibition: 100%
